Results as given in PMC7961091, “Bacillus subtilis YngB contributes to wall teichoic acid glucosylation and glycolipid formation during anaerobic growth” (The Journal of Biological Chemistry, 2021).

B1: GtaB (Bacillus subtilis subsp. subtilis str. 168) (protein)
chain: MKKVRKAIIPAAGLGTRFLPATKAMPKEMLPIVDKPTIQYIIEEAVEAGIEDIIIVTGKSKRAIEDHFDYSPELERNLEEKGKTELLEKVKKASNLADIHYIRQKEPKGLGHAVWCARNFIGDEPFAVLLGDDIVQAETPGLRQLMDEYEKTLSSIIGVQQVPEEETHRYGIIDPLTSEGRRYQVKNFVEKPPKGTAPSNLAILGRYVFTPEIFMYLEEQQVGAGGEIQLTDAIQKLNEIQRVFAYDFEGKRYDVGEKLGFITTTLEFAMQDKELRDQLVPFMEGLLNKEEI
notes: full-length, C-terminal His-tag cleaved off with thrombin (pET28b-gtaB-cHis), E. coli BL21(DE3)
B2: YngB (Bacillus subtilis subsp. subtilis str. 168) (protein)
chain: MRKKVRKAVIPAAGLGTRFLPATKAQPKEMLPIVDKPAIQYIVEEAAESGIEDILIITGRNKRSIEDHFDRSAELEFNLREKGKTETLKEMQQIADLANIHYIRQKEPLGLGHAVLCAEHFIGDEPFAVLLGDDIMVSETPALRQLMDVYDVYGTEVVGVQSVLPEDVSKYGIINTSGSQGHVYEVNDLVEKPSPEEAPSEIAVMGRYVLNSSIFSVLKTIGRGAGNEIQLTDALREVCRKEPIHARLLEGNRYDIGDKLGCFKASTEIGLMRPEMRSQLLAYLEDVIKRETKEMLR
notes: full-length, C-terminal His-tag kept (pET28b-yngB-cHis), E. coli BL21(DE3); native (Met) protein in kinetics; dimer in crystal

How the values were obtained:
[1] = substrate: O=c1ccn([C@@H]2O[C@H](COP(=O)(O)OP(=O)(O)OP(=O)(O)O)[C@@H](O)[C@H]2O)c(=O)[nH]1; assay: purified protein; assay type: biochemical, Bacillus subtilis; conditions: 200 μM Glc-1-P, MgCl2 10 mg/ml (so in the source), 50 mM Tris pH 7.5, 500 mM NaCl, 5% glycerol, RT
[2] = substrate: O=P(O)(O)O[C@H]1O[C@H](CO)[C@@H](O)[C@H](O)[C@H]1O; assay: purified protein; assay type: biochemical, Bacillus subtilis; conditions: 200 μM UTP, MgCl2 10 mg/ml (so in the source), 50 mM Tris pH 7.5, 500 mM NaCl, 5% glycerol, RT

Protein | Km [1] [µM] | kcat [1] [s⁻¹] | Km [2] [µM] | kcat [2] [s⁻¹]
B1 | 49.5 ± 10.2 | 1.04 | 45.6 ± 3.24 | 1.06
B2 | 62.9 ± 13.8 | 0.293 | 42.1 ± 20.2 | 0.264
